Reference: the NTF2 design screens of Basanta et al. (2020)

Assay: protease stability score; higher = more stable; yeast display proteolysis, trypsin and chymotrypsin;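 note: relative to predicted unfolded state with 0 unfolded-like and 1 meaning tenfold more protease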

Point of comparison: “DEEKEEFKIASKLFIDSLRTGNEELLSFLFDPHAKSDVNGKNIHGMEILAETMSRLFERYKGMQIRVDEIRFFDGQIHLHGRVNFNGREHTVIVIINKVNGQWRIQDLQID”, protease stability score 1.11. Against it:
- DETHRDMEEALRLFVRLLETGNEEILSKLVDPHVKIDFENHQHIGMEDWMKFMHHIRLDSMRIDDFKLIGDKARSDTTLDGNVNGRHFKFKTWIVAQKVDGRWLEHSVEYR — lower, 0.885
- DEMHEYTERLLHLLTFAQITGDERIHERLADPNVKIHINGREFHGREEVWHSLEEIRVRHTELRESDIQGDKINVNGDVDLHFNGVDIVTKVRIVVDKVNGRWRISFLRID — lower, 0.546
- SEDEERLRKFAEHMVNLWFTGNENELTKLIDPDTRIDIDGKELHGMELAFRVLQEHLEKLGVKHQEVRDVEIYGDKFILHWTLHVGDFTLRMEVRIVVINGRVKSMEFRTDHR — higher, 1.89
- SEREDEMNHSRHLIEDSWRTGDFHITVRLADPHMKVIVGDYEYHGREHLHEVARNADIYHRIHINDWRIIGNKVEIDTEIDGFFNGVPHRTRVEIILSKINGRWILRSIIFR — higher, 1.31
- GDLEHMLESMARLWTHEVLTGDEDTLRRLADPNVRFESHVNGQRVEFHGMEEVAEWMRKHLEEIRSRIELRTIEPQGNKAHVDGTTHLHYNGRTVIKKTHVHLSIVDGKIQRVELELR — lower, -0.051
- SELHEEVRHIAEQWVKSWITGDEHLLQKLADPHVRFKIGDKSNHGRENVIKEIRRLEEEHGAEERIIITHVRVVGDKYELHGTYELRIGDKHETRHLHIEIWVVNGVVKEIDIQID — lower, 1.07
- DELERLAVETIHRFWHSLTTGNEKVLDELLDPNVRVHYNGKDIIGMEHFLKEISEIWRHVEDIKFTDNRVQGEKIRVHGHVDVKEEFDGRKIKIHTRVDYVVHKINGVWVVQSIKIH — lower, 1.05
- SEEETDAKIAYHLEYELLKTGDEKMIHENLDPDARFISDVNGVEHRDHGRENFSRSMSEWLKRFGVDHMDIRHVRFFNGKIDMEVEINVNGVRIDLHLHSHKINGQWIITRVDIRID — higher, 1.24
- DHLEDTFRELTRILWEALHTGDWEIRRHYADPNARFQMHINGVELRDHGMDQLSRKYEEWYRRVDHYEVRIKDRRYQGDKMIIHVHIRVKINGKEIHYDVILYIIVVNGRIEEESEEVR — higher, 1.34
- SEMHEDAEEVLRRISHYLNTGDEDSFLEMADPHTRIRVGNKEYIGREWSLVLIEKVKGARQEIRIELKDVNLVNGRLEVDGRFRLHYRFNGKTVDEHRNVIVYSYKFNGRWEIKSEQVD — higher, 1.49
- SDSEESSKVALELFKESVETGDERVSQELADPNYRVHYGDKTLHGREAWIRVILEMRWRTVTFKHLDFQGDKVRIEGEILGEYNGVETNFSTTLNVLKINGQWFLHSVHIQ — higher, 1.49
- DEDSEQARKFTELLFESIRTGDWKSLERLFDPNTRLEVGEFEHHGMEEATKFLIELRLEDFHIHSTKIDIQGEWIHIRLDGVERGYIGDKKRDTRSHIRLDNLKINGRWINQRLIIEIR — higher, 1.13
- DKDEDDERKAIDTLVDVLRTGDEHTLQRLLDPNVQLHIGDKRHHGRDEVIRVLHELHRRLGVTRVEVEIQEYHMVDGQIDLRVHLKYGDKTIESEFVLYKVNGRWFVKSLHFK — higher, 2.24
- SEDKEAFHRVMKLLLHAWRTGDEDREKELFDPNVRFIIGDKIIIGREEWLKLLRRIDHLEVDLDIKRLEVIGDKIKAEFRLHEILKIDGVEIHQEHEVRLHLHKINGRWIIERVHVE — lower, 0.845
- DEEEEQARHMVMLFLRYILTGDEKHFQTLADPDVRTDVNGKEHHGREEATRTLRLYIELMGADHIQLKDWEIEVQGEFVRLRLHVQVDVGDKHLRTDLHFEIKKVNGQWVVHQVVIKTL — higher, 2.19
- DEKEEAARQIMTWLLEVLLTGDERLFEHNADPNVRIDVDGVDLVGMELFRHEVRRIDHMESRMRVRRVTVQGDKVRMEVEIEVTLFINGKEIRHRRESELIVLKIDGRWIIKSTHVK — higher, 1.56
- DEDERAIHVMLKLVKKAMDTGNEHMETELLDPNVRLDVNGRDVHGREEMRKFLNHHWKEWGVDRIIFLFESIHFQGDKVHIRGYVHINGKDFDVEFIASKVNGRWLVESRHLR — lower, 1.03
- SEDFHRIFHMLELIIRAWITGDEELLEKLADPHVRIDIDGVDIVGMELVSTFLHEIRFDLKQIRFKDIHVVNGRIRLHGESDVHVQIGDKEYEIRSEEEWIVTKVNGQWRLTEVRYL — higher, 2.08
- DEERKHSEDLKDMHLKSMLTGDEEFISHLADPNVRIVFNGRDLHGRELLHEILKRINEELGVSNIEVRLHHIEIVGEWVHIHGRLHWNGRTSRIHLLLFKIDGQWNIKSIHIEIE — higher, 1.22
- DEDEELDRKFTTLFLHLWETGDEDTMRDLLDPDVRLLIIYNGRHIEVHGREHMSKFLKDFWRKFKNLRIHVKHVEAIDGVVHISGETRFDGRSTLVQIDIDVVDGRIKSERYIFR — higher, 1.76
- DEEHRLSHEIEKHLEDDLRTGDFHHFIKQVDPNTRVRYGDKRLHGMHAVIWTLEHLGIDVFHLTDSHTFENRVVVHVRLEQGDFTMSVEVHATKVNGRWIVTKINFHHS — lower, 0.023
- TEEDELYRLLREHLKHVIETGDEELTQKNLDPHVKVELQIGDKKFTLHGRDQFTQWWKELHEKVKNIRFEDRHVQFFDGVAVVHVEINVNGRHIELIVIAEKVNGQWRIKHVEIRFL — higher, 1.53
- SEDEKQFNEFLKLFNHSLQTGDEDTLTDLMDPTVRSDINGREFHGREEMSRALNILIKLAGVDHTSIDLKRLEVVGDKAHSDVSLLLIQGDKIRTHEMKLDMYKIDGKWILTHLRFK — higher, 1.66
- DEEEKRIEEIARLIFKLWHTGDEEHFLRLADPHVRLNVDGRELHGRERVKHWLHELRHRVDHITDYKEKHKENQGEFFVQWGVLDVHVDGKNVRTRVRIEIVVIDGKINEVRIEVH — higher, 1.36
- SEDEEFARTAVELVSEAWETGDENLEEHLLDPNVKIDIGDKELHGMESSIKYWREIRIHLLHVEIHSVEFFDGRVILDTRFKFDGDFDGKRIERSSTMIWIAHKVDGRWRVHHMENR — higher, 1.25
- SESHNFFKWALEVLLLSLRTGNERHLETLADPNMRVYINGREHHGRQMYFEMVFRWIEKFPNIQIHIHIEDTRVQGDKVHVDGEYQERFNGKTFVEKVHIIMLKIDGKWVLERDEII — higher, 1.6
- KEEEEEARQAWDLLHNIMKTGDEHQLMSLVDPNYLNIAEGREFHGREVFYHYMHELRVKWEHMHLKDYRVYNGRIRTEEHLVVHYEYGDKHDSLRTDVHLKDVKINGRWRVRHLHII — lower, 0.78
- DENHEIVKRALEIIVVALLTGDFDTLTELFDPEVRIQVGDKHLHGREDFWKWLKELITRADHNDFKVESIEVQGDKMVIDGEMIIHYNGREHRYKTEVIILKIDGRWVVKRIHYE — higher, 1.65
- SEKERLVLEIYWKIIHSRNTGDEDHWEELADPDMKLTINGVEFHGREATSKFFKEHVKRFGWEFHIHVDRINAFDGRVESHVIIHIQVGDKHIEIEMREEYVVINGVLKEIRILDR — higher, 2.1
- TEIEEHIREVSEILTDWIITGNEEMIEKLLDPHARVVIGDKEHHGREVVIRFLRHWRLHRFDHRSFILQGEKAILIGDMDGDINGQRINLHVEEIHIIVDGRLKILEVKYK — higher, 2.7
- SEMEEVAVREWEILVKALRTGDERIISELMDPHARVDYNGRQLHGREEVKKFLEEIRIVTHHTEIKDHEYQGNKLIMHGHVDVENEYGDKTERIDTHIHIILRKVNGRWFITEIDIR — higher, 2.53
- REEEKIYHHLTEMWYEMLHTGNEEERERLFDPNTRVNIGDYHFHGREKLLEAYRRWRHMLGIKHYEVDRVEVIGDKVFSQGHSKAENHRLDVRIVIVVWNGRLKETSVDIH — lower, 1.04
- HEDEEEQRLANEIFHKMIWTGDEERLKDLMDPHVRIDVNGREVHGMEEWLEHFLQFKNMKFRVHFRENRIIDGVARSRTELRIIFDGREYRIDLIVIAQKINGRWILRSIEIR — higher, 1.34
- DEHTKLLEDLVKILLFIRKTGDEDTFNKLFDPNVRLVQGDKTYHGRETFNKTMREWRIHHFEIKRSHFIGEWAEIDGHEDGDINGQKIRTDVEIILIIIDGRIKSIEYRPL — lower, 0.929
- TESEKLSRIVIKLLIESTRTGDERILHELVDPNVKLNVNGRELHGWEEMVKIHKQWRFHDLEVDSVRLIGDKMEIDTTIHGTIDGQKDNIDVRIILEKVNGRWVLREVHIK — higher, 1.58
- DEQERAQEALRRFLRVFQEGDPDRARQQADKDVQMVVGDKEYEGREQVSRAIESLRERVDEFHITVRRITVSGNRVVVDAKLKLNINGKEDDVTLKLVIDVSGDKISIKRVEVR — higher, 1.16
- SEDEKDAHEAVKRMVHFSETGDWREIEELADPHYRIDWNGRTHIGREEFTEITKRLGINVIRHRHITIINGRIHVHGEVHFNGQSTEVEFIITKINGKWRLHEMIIR — lower, 0.747
- SEWEEFMERMLELVIEVMKTGDFDRFRSLFDPHVKIRIIIGDKHHEFHGWLWLRTLIEKMGIDHLQINVRSYRIIGDKLEVDGELLSHYNGRTSHRTVHYHIVIINGRLHHITIEYH — lower, 0.214
- DEIHEDFDRFLEEYLESLRTGDWKKVEELHDPNTRVDIGDKHVIGMDLLAHLETKDFIKRGARVDMHVRRFEIQGNKIIIHGELRIHYGDKHVRINIHLDIRKINGKWIIRHEEIR — higher, 1.13
- DEDTEQAERVSHIMLHLYHTGDEEKFNHLADPNVRVEVNGVEIIGRHAFMKHLREIRLHDLRIEEVHIRVFNGRLRIEIKGRMDGHFNGVTKRTEVDILIIVLKVDGRWHVHSFSETIH — higher, 1.6
- DEHEHLALRMTTRFTDMLRTGDWENMLRYFDPDARIIIDGRKHHGRERMHEIWREIRVTDLRINRERVRVQGDFVINHIDGEEDVEIGDKRISTRSIIILVVHKIDGRWHMKELEINIV — lower, 0.796
- DEDHELVHRAIRDLFRALDTGDEDALEEMMDPHTRLHVGDKIYHGRDNVLRFWRRLGVDHVKVHLHDVRIQGEKIDQNTELRIQIGDKRITTETRIIMFKFDGRWRRESVHIE — lower, 1.01
- SEDEELSRIISHLEVDLVHTGDEDTMRKLFDPNAKSHIHVGEYNIESHGREWISILWTDLGADHRELDEIQTDVQGDKVFVNMDLTMDVDGVSHRMFIQFVSVKVDGRWTIKEINVSVI — higher, 1.81
- DEEKEKAKEFLHEWFRSLETGDEDLLTKLLDPNARMDINGQRFVGRHDIQRFISELREKIPNMQIDFHDQEMTDVNGVVQVDMRVDIHYGDKSSHHRLHVYVLKINGRWINKHIHVRTK — higher, 1.16
- DEDKQWIEEFIELHLRELETGDEQRVDENLDPNVKLRINGKEVHGRERISHLLKELLRKVKNLKVELHDIRVQGDFLEIEGTLRIGDKELDLYVIAHKVNGKWIVKERRIH — higher, 1.23
- SESERYIHEAERHLIEKLRTGDWDDMSRLLDPHVRLDVNGQEFHGWHRVSDTMRRFGFKHVDVEDTHINEDELRSHLRSRVDGVHFELHIQMRKVNGRWFFKNLEFK — higher, 1.15
- DHRDRYAEEVAHRLLKLRHTGDEEIYHEFADPNDRLIIWIGDKSIHSHGRSLVVQVLRRLHEHWRLEDMFIHDEKLVGEKSNMDIHVVGNINGKRMETTEKFTVRVINGRLHTLEIHLD — lower, 0.474
- DEDERETRFIIKLLLETIQTGDEKTFEELLDPSVRLVVGDKIIHGRDVLSEFFSHARFHRIEIHNMESQGDKAHIDIRVDGKFNGKRKTTEVNLHIEKFDGRWRIKEFRIH — higher, 2.08
- SEEHELSHHWADLMFHWMLTGDEEMFEHFADPHVRLHVNGKDIHGREKFVEWLREELEKIKNLTYRLHDVEIQGDKVHLTVKVDVNGKRLDTRVHIDLVNGRVRSIEIRHR — higher, 1.42
